# Earlier results, collected in patent publication US20250282866A1, “TREATMENT OF DISEASES RELATED TO ATP-BINDING CASSETTE TRANSPORTER 1 DYSFUNCTION USING TREM2 AGONISTS” (VIGIL NEUROSCIENCE, INC., priority 2020, published 2025).
# T1: human TREM2 (Homo sapiens, UniProt Q9NZC2)
# T1 sequence (Q9NZC2 19-230): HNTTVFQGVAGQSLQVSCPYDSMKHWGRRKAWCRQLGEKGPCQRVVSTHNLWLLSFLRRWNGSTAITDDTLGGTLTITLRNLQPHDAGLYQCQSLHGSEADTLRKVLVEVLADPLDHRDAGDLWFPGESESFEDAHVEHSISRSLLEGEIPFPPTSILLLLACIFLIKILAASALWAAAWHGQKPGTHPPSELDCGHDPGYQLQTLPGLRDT
# Target: T1, human TREM2
# Conditions: for Binding Signal (fold over 6E7 Parental antibody) 1st screen 110 nM or 10 nM: values printed without asterisk, concentration 110 nM or 10 nM (footnote a not given)
Molecule,Binding Signal (fold over 6E7 Parental antibody) 1st screen 110 nM or 10 nM,Binding Signal (fold over 6E7 Parental antibody) 2nd screen 2 nM,Binding Signal (fold over 6E7 Parental antibody) 2nd screen 10 nM
"V17: 6E7 variant: VH T30G, Q99S; VL L54R, F94S (antibody, V domains shown) VH: EVQLVQSGAEVKKPGESLKISCKGSGYSFGSYWIAWVRQMPGKGLEWMGIIYPGDSDTRYSPSFQGQVTISADKSISTAYLQWSSLKASDTAMYFCARSRTFYYDSSDYFDYWGQGTLVTVSS VL: DIQMTQSPSSVSASVGDRVTITCRASQGISSWLAWYQQKPGKAPKLLIYAASSRQNGVPSRFSGSGSGTDFTLTISSLQPEDFATYFCQQADSSPRTFGQGTKLEIK",5.37 fold over 6E7 Parental antibod,4.22 fold over 6E7 Parental antibod,5.51 fold over 6E7 Parental antibod
"V28: 6E7 variant: VH T30Q, I50T, Y103F; VL N56S, F94L (antibody, V domains shown) VH: EVQLVQSGAEVKKPGESLKISCKGSGYSFQSYWIAWVRQMPGKGLEWMGTIYPGDSDTRYSPSFQGQVTISADKSISTAYLQWSSLKASDTAMYFCARQRTFFYDSSDYFDYWGQGTLVTVSS VL: DIQMTQSPSSVSASVGDRVTITCRASQGISSWLAWYQQKPGKAPKLLIYAASSLQSGVPSRFSGSGSGTDFTLTISSLQPEDFATYFCQQADSLPRTFGQGTKLEIK",3.08 fold over 6E7 Parental antibod,2.63 fold over 6E7 Parental antibod,3.61 fold over 6E7 Parental antibod
"V26: 6E7 variant: VH A35G, I50T, F102M, Y112A; VL N56R, F94Y (antibody, V domains shown) VH: EVQLVQSGAEVKKPGESLKISCKGSGYSFTSYWIGWVRQMPGKGLEWMGTIYPGDSDTRYSPSFQGQVTISADKSISTAYLQWSSLKASDTAMYFCARQRTMYYDSSDYFDAWGQGTLVTVSS VL: DIQMTQSPSSVSASVGDRVTITCRASQGISSWLAWYQQKPGKAPKLLIYAASSLQRGVPSRFSGSGSGTDFTLTISSLQPEDFATYFCQQADSYPRTFGQGTKLEIK",3.57 fold over 6E7 Parental antibod,2.83 fold over 6E7 Parental antibod,3.47 fold over 6E7 Parental antibod
"V27: 6E7 variant: VH S61A, Q99S; VL N56R (antibody, V domains shown) VH: EVQLVQSGAEVKKPGESLKISCKGSGYSFTSYWIAWVRQMPGKGLEWMGIIYPGDSDTRYAPSFQGQVTISADKSISTAYLQWSSLKASDTAMYFCVRSRTFYYDSSDYFDYWGQGTLVTVSS VL: DIQMTQSPSSVSASVGDRVTITCRASQGISSWLAWYQQKPGKAPKLLIYAASSLQRGVPSRFSGSGSGTDFTLTISSLQPEDFATYFCQQADSFPRTFGQGTKLEIK",5.50 fold over 6E7 Parental antibod,5.67 fold over 6E7 Parental antibod,5.69 fold over 6E7 Parental antibod
"V25: 6E7 variant: VH T30G, I50L, Q99S; VL Q55A, F94M (antibody, V domains shown) VH: EVQLVQSGAEVKKPGESLKISCKGSGYSFGSYWIAWVRQMPGKGLEWMGLIYPGDSDTRYSPSFQGQVTISADKSISTAYLQWSSLKASDTAMYFCARSRTFYYDSSDYFDYWGQGTLVTVSS VL: DIQMTQSPSSVSASVGDRVTITCRASQGISSWLAWYQQKPGKAPKLLIYAASSLANGVPSRFSGSGSGTDFTLTISSLQPEDFATYFCQQADSMPRTFGQGTKLEIK",4.23 fold over 6E7 Parental antibod,3.15 fold over 6E7 Parental antibod,4.70 fold over 6E7 Parental antibod
"V36: 6E7 variant: VH I34L, Q99S; VL L54R, F94Y (antibody, V domains shown) VH: EVQLVQSGAEVKKPGESLKISCKGSGYSFTSYWLAWVRQMPGKGLEWMGIIYPGDSDTRYSPSFQGQVTISADKSISTAYLQWSSLKASDTAMYFCARSRTFYYDSSDYFDYWGQGTLVTVSS VL: DIQMTQSPSSVSASVGDRVTITCRASQGISSWLAWYQQKPGKAPKLLIYAASSRQNGVPSRFSGSGSGTDFTLTISSLQPEDFATYFCQQADSYPRTFGQGTKLEIK",3.38 fold over 6E7 Parental antibod,4.00 fold over 6E7 Parental antibod,3.44 fold over 6E7 Parental antibod

# Next, values leading:
Binding Signal (fold over 6E7 Parental antibody) 1st screen 110 nM or 10 nM,Binding Signal (fold over 6E7 Parental antibody) 2nd screen 2 nM,Binding Signal (fold over 6E7 Parental antibody) 2nd screen 10 nM,Molecule
4.01 fold over 6E7 Parental antibod,3.57 fold over 6E7 Parental antibod,4.04 fold over 6E7 Parental antibod,"V16: 6E7 variant: VH F29M, S56G, Q99S; VL S53N (antibody, V domains shown) VH: EVQLVQSGAEVKKPGESLKISCKGSGYSMTSYWIAWVRQMPGKGLEWMGIIYPGDGDTRYSPSFQGQVTISADKSISTAYLQWSSLKASDTAMYFCARSRTFYYDSSDYFDYWGQGTLVTVSS VL: DIQMTQSPSSVSASVGDRVTITCRASQGISSWLAWYQQKPGKAPKLLIYAASNLQNGVPSRFSGSGSGTDFTLTISSLQPEDFATYFCQQADSFPRTFGQGTKLEIK"
3.46 fold over 6E7 Parental antibod,3.69 fold over 6E7 Parental antibod,3.49 fold over 6E7 Parental antibod,"V37: 6E7 variant: VH F29H, Q65A, Q99S; VL N56W, F94Y (antibody, V domains shown) VH: EVQLVQSGAEVKKPGESLKISCKGSGYSHTSYWIAWVRQMPGKGLEWMGIIYPGDSDTRYSPSFAGQVTISADKSISTAYLQWSSLKASDTAMYFCARSRTFYYDSSDYFDYWGQGTLVTVSS VL: DIQMTQSPSSVSASVGDRVTITCRASQGISSWLAWYQQKPGKAPKLLIYAASSLQWGVPSRFSGSGSGTDFTLTISSLQPEDFATYFCQQADSYPRTFGQGTKLEIK"
2.64 fold over 6E7 Parental antibod,1.42 fold over 6E7 Parental antibod,2.90 fold over 6E7 Parental antibod,"V24: 6E7 variant: VH T58V, Q99S; VL N56K, R96H (antibody, V domains shown) VH: EVQLVQSGAEVKKPGESLKISCKGSGYSFTSYWIAWVRQMPGKGLEWMGIIYPGDSDVRYSPSFQGQVTISADKSISTAYLQWSSLKASDTAMYFCARSRTFYYDSSDYFDYWGQGTLVTVSS VL: DIQMTQSPSSVSASVGDRVTITCRASQGISSWLAWYQQKPGKAPKLLIYAASSLQKGVPSRFSGSGSGTDFTLTISSLQPEDFATYFCQQADSFPHTFGQGTKLEIK"
